Reference: patent US20200024330A1

What was measured:
Experiment in all cases: cell-based or functional assay
[1] = biological target: HIV-1 MGRM-F1-013 Env (pseudovirus) (HIV-1)
[2] = biological target: HIV-1 94UG103 envelope protein (Env) on pseudotyped virus (HIV-1 isolate 94UG103)
[3] = biological target: HIV-1 93IN905 envelope protein (Env) on pseudotyped virus (HIV-1 isolate 93IN905)
[4] = biological target: HIV-1 92TH021 envelope protein (Env) on pseudotyped virus (HIV-1 isolate 92TH021)
[5] = biological target: HIV-1 IAVI_C22 envelope protein (Env) on pseudotyped virus (HIV-1 isolate IAVI C22)
[6] = biological target: HIV-1 Env of isolate MGRM-D-024 (HIV-1)
[7] = biological target: HIV-1 Env of isolate MGRM-F1-010 (HIV-1)
[8] = biological target: HIV-1 envelope glycoprotein (Env) of isolate MGRM-C-015, on pseudovirus (HIV-1)
[9] = biological target: HIV-1 envelope glycoprotein (Env) of isolate MGRM-C-014, on pseudovirus (HIV-1)
[10] = biological target: HIV-1 envelope glycoprotein (Env) of isolate MGRM-C-020, on pseudovirus (HIV-1)
[11] = biological target: HIV-1 envelope glycoprotein (Env) of isolate MGRM-C-025, on pseudovirus (HIV-1)
[12] = biological target: HIV-1 envelope glycoprotein (Env) of isolate MGRM-C-017, on pseudovirus (HIV-1)
[13] = biological target: HIV-1 envelope glycoprotein (Env) of isolate MGRM-C-022, on pseudovirus (HIV-1)
[14] = biological target: HIV-1 envelope glycoprotein (Env) of isolate MGRM-C-019, on pseudovirus (HIV-1)
[15] = biological target: HIV-1 envelope glycoprotein (Env) of isolate MGRM-C-028, on pseudovirus (HIV-1)
[16] = biological target: HIV-1 Env of isolate MGRM-D-028 (HIV-1)
[17] = biological target: HIV-1 envelope glycoprotein (Env) of isolate MGRM-C-026, on pseudovirus (HIV-1)
[18] = biological target: HIV-1 MGRM-Chronic-B-010 Env (pseudovirus) (HIV-1)
[19] = biological target: HIV-1 Env of isolate MG RM-AG-005 (HIV-1)
[20] = biological target: HIV-1 Env of isolate MG RM-AG-003 (HIV-1)
[21] = biological target: HIV-1 JR-FL Env (pseudovirus) (HIV-1)
[22] = biological target: HIV-1 Env of isolate MG RM-AG-001 (HIV-1)
[23] = biological target: HIV-1 Env of isolate 92UG005 (subtype D) (HIV-1)
[24] = biological target: HIV-1 MGRM-D-018 Env (on pseudovirus) (HIV-1)
[25] = biological target: aMLV envelope protein (on pseudovirus, negative control) (aMLV)
[26] = biological target: HIV-1 APV13 Env (on pseudovirus) (HIV-1)
[27] = biological target: HIV-1 APV17 Env (on pseudovirus) (HIV-1)
[28] = biological target: HIV-1 MGRM-AG-005 Env (on pseudovirus) (HIV-1)
[29] = biological target: HIV-1 MGRM-C-027 Env (on pseudovirus) (HIV-1)
[30] = biological target: HIV-1 93UG077 Env (on pseudovirus) (HIV-1)
[31] = biological target: HIV-1 APV6 Env (on pseudovirus) (HIV-1)
[32] = biological target: HIV-1 APV13 envelope glycoprotein (Env) on pseudovirus (HIV-1)
[33] = biological target: HIV-1 MGRM-D-001 envelope glycoprotein (Env) on pseudovirus (HIV-1)

Sequence of PGT-141 (4964_G22; 4993_K13) (antibody) (VH): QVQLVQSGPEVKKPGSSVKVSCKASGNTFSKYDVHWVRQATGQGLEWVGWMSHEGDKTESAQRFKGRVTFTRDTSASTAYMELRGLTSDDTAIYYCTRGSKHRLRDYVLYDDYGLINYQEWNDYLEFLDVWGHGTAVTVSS
Sequence of PGT-141 (4964_G22; 4993_K13) (antibody) (VL): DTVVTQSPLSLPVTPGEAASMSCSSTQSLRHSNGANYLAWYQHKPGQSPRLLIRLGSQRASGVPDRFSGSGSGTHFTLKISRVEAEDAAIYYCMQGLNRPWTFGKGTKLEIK
Sequence of 1443_C16 (PG16) (TCN-116) (antibody) (VH): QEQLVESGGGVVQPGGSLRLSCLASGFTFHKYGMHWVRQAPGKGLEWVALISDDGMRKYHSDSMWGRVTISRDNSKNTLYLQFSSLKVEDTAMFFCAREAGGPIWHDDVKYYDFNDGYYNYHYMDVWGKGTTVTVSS
Sequence of 1443_C16 (PG16) (TCN-116) (antibody) (VL): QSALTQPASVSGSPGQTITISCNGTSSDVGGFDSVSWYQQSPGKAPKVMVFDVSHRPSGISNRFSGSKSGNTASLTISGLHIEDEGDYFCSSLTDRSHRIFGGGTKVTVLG
Sequence of PGT-142 (4995_E20) (antibody) (VH): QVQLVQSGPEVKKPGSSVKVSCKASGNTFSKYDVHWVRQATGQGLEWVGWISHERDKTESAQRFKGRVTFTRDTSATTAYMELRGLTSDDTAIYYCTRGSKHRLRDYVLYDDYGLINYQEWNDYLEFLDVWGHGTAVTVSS
Sequence of PGT-143 (4980_N08) (antibody) (VH): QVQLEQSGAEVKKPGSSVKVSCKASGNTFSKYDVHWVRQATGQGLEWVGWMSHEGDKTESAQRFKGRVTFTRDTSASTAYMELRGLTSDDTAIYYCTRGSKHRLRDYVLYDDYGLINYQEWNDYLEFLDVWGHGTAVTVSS
Sequence of PGT-143 (4980_N08) (antibody) (VL): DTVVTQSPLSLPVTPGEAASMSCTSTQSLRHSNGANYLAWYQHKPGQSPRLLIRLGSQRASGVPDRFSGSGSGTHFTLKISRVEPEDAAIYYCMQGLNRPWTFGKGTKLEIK
Sequence of PGT-144 (4970_K22) (antibody) (VH): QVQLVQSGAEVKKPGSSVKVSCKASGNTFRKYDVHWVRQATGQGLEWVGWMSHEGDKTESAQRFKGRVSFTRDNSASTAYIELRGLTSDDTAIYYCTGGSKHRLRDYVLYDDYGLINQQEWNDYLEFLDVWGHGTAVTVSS
Sequence of PGT-144 (4970_K22) (antibody) (VL): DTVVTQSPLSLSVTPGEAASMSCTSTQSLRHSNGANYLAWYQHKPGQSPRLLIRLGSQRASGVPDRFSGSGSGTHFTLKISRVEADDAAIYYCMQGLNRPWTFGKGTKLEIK

2G12 (antibody)
IC50 (µg/ml), pseudovirus neutralization [1]: > 50 µg/mL

1443_C16 (PG16) (TCN-116) (antibody)
IC50, pseudovirus neutralization, 1 hour Virus/Ab Incubation [2]: 0.0211 mg/L
IC50, pseudovirus neutralization, 18 hour Virus/Ab Incubation [2]: 0.0085 mg/L
IC50, pseudovirus neutralization, 1 hour Virus/Ab Incubation [3]: 0.33 mg/L
IC50, pseudovirus neutralization, 18 hour Virus/Ab Incubation [3]: 0.255 mg/L
IC50, pseudovirus neutralization, 1 hour Virus/Ab Incubation [4]: 0.136 mg/L
IC50, pseudovirus neutralization, 18 hour Virus/Ab Incubation [4]: 0.0435 mg/L
IC50, pseudovirus neutralization, 1 hour Virus/Ab Incubation [5]: 0.114 mg/L
IC50, pseudovirus neutralization, 18 hour Virus/Ab Incubation [5]: 0.106 mg/L

VRC01 (antibody)
IC50, pseudovirus neutralization [6]: 0.366 mg/L
IC50, pseudovirus neutralization [7]: 0.097 mg/L
IC50, pseudovirus neutralization [8]: 1.57 mg/L
IC50, pseudovirus neutralization [9]: > 50 mg/L
IC50, pseudovirus neutralization [10]: 0.396 mg/L
IC50, pseudovirus neutralization [11]: 2.36 mg/L
IC50, pseudovirus neutralization [12]: 0.366 mg/L
IC50, pseudovirus neutralization [13]: 13 mg/L
IC50, pseudovirus neutralization [14]: 1.13 mg/L
IC50, pseudovirus neutralization [15]: 0.319 mg/L
IC50, pseudovirus neutralization [16]: 0.377 mg/L
IC50, pseudovirus neutralization [17]: 0.707 mg/L

5145_B14 (PGT-127) (antibody)
IC50, pseudovirus neutralization [18]: 0.019 mg/L
neutralization IC50 [19]: > 50 mg/L
neutralization IC50 [20]: > 50 mg/L
IC50, pseudovirus neutralization [21]: 0.029 mg/L
neutralization IC50 [22]: > 50 mg/L
IC50 (µg/mL), pseudovirus neutralization [23]: 1.11 µg/mL

PGT-143 (4980_N08) (antibody)
IC50 (ug/ml), pseudovirus neutralization [24]: > 10 µg/mL
IC50, pseudovirus neutralization [8]: 0.085 mg/L
IC50 (ug/ml), pseudovirus neutralization [25]: > 10 µg/mL
IC50, pseudovirus neutralization [9]: 8.81 mg/L
IC50, pseudovirus neutralization [10]: 0.797 mg/L
IC50 (ug/ml), pseudovirus neutralization [26]: > 10 µg/mL
IC50 (ug/ml), pseudovirus neutralization [27]: 0.618 µg/mL
IC50, pseudovirus neutralization [11]: 0.336 mg/L
IC50, pseudovirus neutralization [12]: 5.17 mg/L
IC50, pseudovirus neutralization [13]: 0.103 mg/L
IC50 (ug/ml), pseudovirus neutralization [28]: 0.244 µg/mL
IC50 (ug/ml), pseudovirus neutralization [29]: 0.505 µg/mL
IC50, pseudovirus neutralization [14]: 0.004 mg/L
IC50 (ug/ml), pseudovirus neutralization [30]: > 10 µg/mL
IC50, pseudovirus neutralization [15]: 12.4 mg/L
IC50 (ug/ml), pseudovirus neutralization [31]: 4.43 µg/mL
IC50, pseudovirus neutralization [17]: > 50 mg/L

PGT-142 (4995_E20) (antibody)
IC50 (ug/ml), pseudovirus neutralization [24]: > 10 µg/mL
IC50, pseudovirus neutralization [8]: 0.038 mg/L
IC50 (ug/ml), pseudovirus neutralization [25]: > 10 µg/mL
IC50, pseudovirus neutralization [9]: 6.02 mg/L
IC50, pseudovirus neutralization [10]: 0.446 mg/L
IC50 (ug/ml), pseudovirus neutralization [26]: > 10 µg/mL
IC50 (ug/ml), pseudovirus neutralization [27]: 0.393 µg/mL
IC50, pseudovirus neutralization [11]: 0.183 mg/L
IC50, pseudovirus neutralization [12]: 1.11 mg/L
IC50, pseudovirus neutralization [13]: 0.086 mg/L
IC50 (ug/ml), pseudovirus neutralization [28]: 0.22 µg/mL
IC50 (ug/ml), pseudovirus neutralization [29]: 0.272 µg/mL
IC50, pseudovirus neutralization [14]: 0.003 mg/L
IC50 (ug/ml), pseudovirus neutralization [30]: > 10 µg/mL
IC50, pseudovirus neutralization [15]: 2.12 mg/L
IC50 (ug/ml), pseudovirus neutralization [31]: 5.42 µg/mL
IC50, pseudovirus neutralization [17]: > 50 mg/L

1495_C14 (PGC14) (antibody)
IC50, pseudovirus neutralization, 1 hour Virus/Ab Incubation [2]: > 50 mg/L
IC50, pseudovirus neutralization, 18 hour Virus/Ab Incubation [2]: > 50 mg/L
IC50 (µg/ml), pseudovirus neutralization [1]: 6 µg/mL
IC50, pseudovirus neutralization, 1 hour Virus/Ab Incubation [3]: > 50 mg/L
IC50, pseudovirus neutralization, 18 hour Virus/Ab Incubation [3]: 0.146 mg/L
IC50, pseudovirus neutralization, 1 hour Virus/Ab Incubation [4]: > 50 mg/L
IC50, pseudovirus neutralization, 18 hour Virus/Ab Incubation [4]: > 50 mg/L
IC50, pseudovirus neutralization, 1 hour Virus/Ab Incubation [5]: > 50 mg/L
IC50, pseudovirus neutralization, 18 hour Virus/Ab Incubation [5]: 13.4 mg/L

5123_A06 (PGT-125) (antibody)
IC50, pseudovirus neutralization [18]: 0.006 mg/L
neutralization IC50 [19]: > 50 mg/L
neutralization IC50 [20]: > 50 mg/L
IC50, pseudovirus neutralization [21]: 0.009 mg/L
neutralization IC50 [22]: > 50 mg/L
IC50 (ug/ml), neutralizing activity [32]: 0.0128 µg/mL
neutralization IC50 [32]: 0.0128 mg/L
neutralization IC80 [32]: 0.0414 mg/L
neutralization IC90 [32]: 0.0821 mg/L
neutralization IC95 [32]: 0.154 mg/L
IC50 (ug/ml), neutralizing activity [33]: 2.31 µg/mL
neutralization IC50 [33]: 2.31 mg/L
neutralization IC80 [33]: > 10 mg/L
neutralization IC90 [33]: > 10 mg/L
neutralization IC95 [33]: > 10 mg/L
IC50 (µg/mL), pseudovirus neutralization [23]: > 50 µg/mL

b12 (antibody)
IC50 (µg/ml), pseudovirus neutralization [1]: > 50 µg/mL

PGT-144 (4970_K22) (antibody)
IC50 (ug/ml), pseudovirus neutralization [24]: > 10 µg/mL
IC50, pseudovirus neutralization [8]: 0.236 mg/L
IC50 (ug/ml), pseudovirus neutralization [25]: > 10 µg/mL
IC50, pseudovirus neutralization [9]: > 50 mg/L
IC50, pseudovirus neutralization [10]: 1.29 mg/L
IC50 (ug/ml), pseudovirus neutralization [26]: > 10 µg/mL
IC50 (ug/ml), pseudovirus neutralization [27]: 5.12 µg/mL
IC50, pseudovirus neutralization [11]: 17.6 mg/L
IC50, pseudovirus neutralization [12]: 23 mg/L
IC50, pseudovirus neutralization [13]: 2.58 mg/L
IC50 (ug/ml), pseudovirus neutralization [28]: > 10 µg/mL
IC50 (ug/ml), pseudovirus neutralization [29]: > 10 µg/mL
IC50, pseudovirus neutralization [14]: 0.513 mg/L
IC50 (ug/ml), pseudovirus neutralization [30]: > 10 µg/mL
IC50, pseudovirus neutralization [15]: > 50 mg/L
IC50 (ug/ml), pseudovirus neutralization [31]: > 10 µg/mL
IC50, pseudovirus neutralization [17]: > 50 mg/L

5141_B17 (PGT-126) (antibody)
IC50, pseudovirus neutralization [18]: 0.005 mg/L
neutralization IC50 [19]: 1.21 mg/L
neutralization IC50 [20]: > 50 mg/L
IC50, pseudovirus neutralization [21]: 0.014 mg/L
neutralization IC50 [22]: > 50 mg/L
IC50 (ug/ml), neutralizing activity [32]: 0.012 µg/mL
IC50 (ug/ml), neutralizing activity [33]: 0.0639 µg/mL
IC50 (µg/mL), pseudovirus neutralization [23]: 0.037 µg/mL

5147_N06 (PGT-130) (antibody)
IC50 (ug/ml), neutralizing activity [32]: 0.0345 µg/mL
IC50 (ug/ml), neutralizing activity [33]: > 10 µg/mL

4877_D15 (PGT-122) (antibody)
IC50, pseudovirus neutralization [18]: 0.018 mg/L
neutralization IC50 [19]: 33.9 mg/L
neutralization IC50 [20]: 43.7 mg/L
IC50, pseudovirus neutralization [21]: 0.026 mg/L
neutralization IC50 [22]: 14.5 mg/L
IC50 (ug/ml), neutralizing activity [32]: 0.992 µg/mL
IC50 (ug/ml), neutralizing activity [33]: 0.867 µg/mL
IC50 (µg/mL), pseudovirus neutralization [23]: > 50 µg/mL

PGT-141 (4964_G22; 4993_K13) (antibody)
IC50 (ug/ml), pseudovirus neutralization [24]: > 10 µg/mL
IC50, pseudovirus neutralization [8]: 0.033 mg/L
IC50 (ug/ml), pseudovirus neutralization [25]: > 10 µg/mL
IC50, pseudovirus neutralization [9]: 11.8 mg/L
IC50, pseudovirus neutralization [10]: 1.34 mg/L
IC50 (ug/ml), pseudovirus neutralization [26]: > 10 µg/mL
IC50 (ug/ml), pseudovirus neutralization [27]: 0.616 µg/mL
IC50, pseudovirus neutralization [11]: 0.247 mg/L
IC50, pseudovirus neutralization [12]: 4.02 mg/L
IC50, pseudovirus neutralization [13]: 0.381 mg/L
IC50 (ug/ml), pseudovirus neutralization [28]: 0.392 µg/mL
IC50 (ug/ml), pseudovirus neutralization [29]: 0.822 µg/mL
IC50, pseudovirus neutralization [14]: 0.008 mg/L
IC50 (ug/ml), pseudovirus neutralization [30]: > 10 µg/mL
IC50, pseudovirus neutralization [15]: 13.8 mg/L
IC50 (ug/ml), pseudovirus neutralization [31]: 5.08 µg/mL
IC50, pseudovirus neutralization [17]: > 50 mg/L

4858_P08 (PGT-123) (antibody)
IC50, pseudovirus neutralization [18]: 0.009 mg/L
neutralization IC50 [19]: 0.149 mg/L
neutralization IC50 [20]: > 50 mg/L
IC50, pseudovirus neutralization [21]: 0.014 mg/L
neutralization IC50 [22]: 2.51 mg/L
IC50 (ug/ml), neutralizing activity [32]: 0.222 µg/mL
IC50, pseudovirus neutralization [32]: 0.222 mg/L
IC80, pseudovirus neutralization [32]: 0.879 mg/L
IC90 (pseudovirus neutralization) [32]: 1.87 mg/L
IC95, pseudovirus neutralization [32]: 3.5 mg/L
IC50 (ug/ml), neutralizing activity [33]: 0.215 µg/mL
IC50, pseudovirus neutralization [33]: 0.215 mg/L
IC80, pseudovirus neutralization [33]: 0.678 mg/L
IC90 (pseudovirus neutralization) [33]: 1.31 mg/L
IC95, pseudovirus neutralization [33]: 2.33 mg/L
IC50 (µg/mL), pseudovirus neutralization [23]: 9.79 µg/mL

2F5 (antibody)
IC50 (µg/ml), pseudovirus neutralization [1]: 4.57 µg/mL
